What was measured:
[1] = Thiolytic cleavage of PEG-lysozyme conjugates (SDS-PAGE, RP-HPLC); type: physicochemical; settings: for cleavage under reducing SDS-PAGE conditions: 2% β-mercaptoethanol, 10 minutes at 70° C.
Protocol: In a study performed in support of the invention, lysozyme was used as a model polypeptide. As described in Example 8, lysozyme was incubated with mPEG-MeDTB-nitrophenylcarbonate in 0.1 M borate, at pH 9, at a 2:1 ratio of nitrophenylcarbonate to amino group of lysozyme. After reactions times of 15 minutes and 3 hours, separate samples were characterized by SDS-PAGE. A comparative conjugate was prepared by reacting lysozyme under the same conditions for 60 minutes with mPEG-nitrophenyl carbonate, which will form a stable mPEG-lysozyme conjugate.
Lanes 6-9 of the gel correspond to the samples in Lanes 1-4, but under reducing SDS-PAGE conditions, after treatment with 2% β-mercaptoethanol for 10 minutes at 70° C. […] In contrast, the stable mPEG-lysozyme conjugate was not affected upon incubation with a reducing agent, as evidenced by the agreement in the profile in Lane 9 and Lane 4.
A similar study was done using cysteine as a reducing agent on a purified mPEG5000-MeDTB-lysozyme conjugate. The results of the SDS-PAGE profile are shown in FIG. 12B, where an mPEG-MeDTB-lysozyme conjugate (Lane 1) treated with 1 mM cysteine (Lane 2), 5 mM cysteine (Lane 3), and 50 mM cysteine (Lane 4) are shown. Also shown are an mPEG-lysozyme conjugate (no cleavable linkage) before (Lane 5) and after treatment (Lane 6) with 50 mM cysteine. Lysozyme before (Lane 7) and after (Lane 8) with 50 mM cysteine are also shown. Lane 9 corresponds to protein markers.
Example 8 describes the methodology of the reverse-phase HPLC analysis. The trace at the bottom of FIG. 13A corresponds to neat lysozyme.
Reverse-phase HPLC analysis. RP-HPLC separation of PEG-lysozyme conjugates was achieved on a Vydac™ Protein C4 (4.6×150 mm) column eluted at 1 ml/min with aqueous acetonitrile gradient as follows. Each chromatography run started with a mobile phase A (30% acetonitrile, 5% 0.1 M sodium acetate pH 5, and 65% H2O), and over a period of 40 min ended with a mobile phase B (50% acetonitrile, 50% 0.1 M sodium acetate pH 5). UV detector set at 280 nm was used to monitor the chromatography. SDS-PAGE. Polyacrylamide gel electrophoresis under denaturing conditions was performed for conjugates characterization. Pre-cast NuPAGE® Bis-Tris gels (4-15%), NuPAGE®MES running buffer, molecular weight protein standards (Mark 12™), and Colloidal Coomassie® G-250 staining kit, were all obtained from Invitrogen, Carlsbad, Calif. […] Aliquots were taken out from the reaction vial at various time points and analyzed by RP-HPLC as described above (see FIG. 13A). […] Purified PEG-DTB-lysozyme containing only one PEG moiety per lysozyme was treated with 1 mM cysteine while the reaction was monitored by LC-MS. […]

bacterial cell wall = experiment: Bacterial cell wall lysis turbidometric assay of enzyme activity; type: biochemical; settings: after treatment with 1 mM cysteine
[2] = Blood lysozyme concentration after intravenous or subcutaneous administration; type: in vivo; settings: rats
Protocol: The mPEG12000-MeDTB-lysozyme conjugates were administered in vivo to rats to characterize the in vivo behavior of the conjugate and its ability to cleave under physiologic conditions. In a first study, nine rats were divided into three test groups for administration of PEG-lysozyme, PEG-MeDTB-lysozyme, or free lysozyme. The test compound was administered intravenously or subcutaneously and blood samples were taken at defined times for analysis of blood lysozyme concentration.

[3] = Cleavage of mPEG-MeDTB-lysozyme in plasma (SDS-PAGE stained for PEG); type: in vitro ADME; settings: plasma for 18 hours
Protocol: The samples were stained with iodine, for PEG visualization. Lane 1 corresponds to mPEG5000-MeDTB-lysozyme, Lane 2 corresponds to mPEG5000-MeDTB-lysozyme in cysteine buffer, Lane 3 corresponds to mPEG5000-MeDTB-lysozyme in plasma for 18 hours, Lane 4 corresponds to mPEG5000-MeDTB-lysozyme with 1,4-dithio-DL-threitol (DTT) added, Lane 5 is a plasma sample control, and Lane 6 is PEG molecular weight markers. […] Free PEG is liberated after treatment with low molecular weight thiol, such as DTT.

bovine serum albumin = bovine serum albumin (Bos taurus, UniProt P02769); experiment: Cleavage of mPEG-DTB-lysozyme by albumin (SDS-PAGE stained for PEG); type: physicochemical; settings: treated with bovine serum albumin
Source text: In another set of studies, it was shown that the thiol group of albumin was acting as the cleaving agent. Albumin is an abundant protein-thiol in plasma (Kratz, F. et al. J. Med. Chem., 45:5523 (2002)). The SDS-PAGE gel from this study is shown in FIG. 16B, where Lanes 1-12 were as follows:
The gel was stained for visibility of PEG. […] Lane 10 corresponds to mPEG-DTB-lysozyme treated with albumin and no spot on the gel corresponding to the mPEG-DTB-lysozyme conjugate is visible (compare to Lane 11), nor is a spot corresponding to released PEG visible (compare to Lane 4).

Chain of bovine serum albumin (P02769 25-607): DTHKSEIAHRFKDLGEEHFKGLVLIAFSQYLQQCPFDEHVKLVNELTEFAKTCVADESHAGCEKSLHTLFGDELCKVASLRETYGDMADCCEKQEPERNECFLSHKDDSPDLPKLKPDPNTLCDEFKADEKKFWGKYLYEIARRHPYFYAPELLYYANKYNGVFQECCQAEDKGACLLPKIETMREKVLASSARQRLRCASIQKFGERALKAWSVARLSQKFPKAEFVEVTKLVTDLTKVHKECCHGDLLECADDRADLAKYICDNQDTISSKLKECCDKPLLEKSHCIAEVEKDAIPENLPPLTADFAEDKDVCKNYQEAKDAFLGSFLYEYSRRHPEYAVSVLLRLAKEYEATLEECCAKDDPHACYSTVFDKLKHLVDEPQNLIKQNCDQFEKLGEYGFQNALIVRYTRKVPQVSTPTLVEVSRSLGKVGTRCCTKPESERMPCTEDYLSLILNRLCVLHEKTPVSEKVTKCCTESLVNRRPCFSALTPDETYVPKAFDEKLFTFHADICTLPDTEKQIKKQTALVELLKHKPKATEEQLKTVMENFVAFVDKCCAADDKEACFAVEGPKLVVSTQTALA

mPEG-lysozyme [reference compound]
cleavage under reducing SDS-PAGE conditions [1]: not affected
cell-lysing (enzymatic) activity after thiolysis (bacterial cell wall): remained inactive

PEG12000-lysozyme [reference compound]
T1/2α ([2]; intravenous): 2.17 h
T1/2β ([2]; intravenous): 32.9 h

mPEG5000-MeDTB-lysozyme
cleavage and release of lysozyme (RP-HPLC) ([1]; 1 mM cysteine, 30 minute time point): near completion
cleavage under reducing SDS-PAGE conditions [1]: decomposed to regenerate native lysozyme
cleavage by cysteine (SDS-PAGE stained for PEG) ([1]; treated with cysteine): cleaved in the presence of cysteine
cell-lysing (enzymatic) activity after thiolysis (bacterial cell wall): nearly all
cell-lysing (enzymatic) activity after thiolysis (bacterial cell wall; listed as mPEG-DTB-Lysozyme): Recovery of enzymatic activity
cleavage in plasma [3]: cleaved in plasma
cleavage by albumin (bovine serum albumin): cleaved by the albumin

lysozyme: model polypeptide
T1/2α ([2]; intravenous): 0.25 h
T1/2β ([2]; intravenous): 24.1 h
blood concentration decrease ([2]; intravenous, within one hour after administration): more than 10 fold

PEG12000-MeDTB-lysozyme
T1/2α ([2]; intravenous): 3.71 h
T1/2β ([2]; intravenous): 37.2 h
bioavailability (AUC) ([2]; subcutaneous): best bioavailability

Reference: patent US7592307B2, “Releasable linkage and compositions containing same” (Alza Corporation, priority 1999, dated 2009)
